Measurements taken from paper PMC2755895 (The Journal of Biological Chemistry, 2009).
No end group written: not given here.

Tests used:
[1] = test system: N-terminal domain of MDM2; details: cited from earlier work
subdomains of p300 = details: cited from earlier work
[2] = target: mutation of single hydrophobic residues to alanine (p53N peptides)
[3] = target: QS2 W53Q/F54S p53N-(35–57) (UniProt P04637); test: fluorescence polarisation
[4] = target: hDp53N-(10–57)-aspartic acid mimic (UniProt P04637); test: fluorescence polarisation
PC4CTD = PC4CTD (Homo sapiens, UniProt P53999); test: Fluorescence titration of p53TAD peptides; format: binding; details: in words

Substance: p53 N-terminal transactivation domain, TAD-(1–93) (from UniProt P04637 1-93) (domain or fragment)
- Kd (p53 DNA-binding domain): > 100 µM

Substance: TAD1: p53 transactivation subdomain TAD1-(1–40)
- interaction with N-terminal domain of MDM2 [1]: very tight
- binding to p300 subdomains (subdomains of p300): bind only weakly

Substance: PC4 C-terminal DNA-binding domain, PC4CTD-(61–127) (from UniProt P53999 61-127) (domain or fragment)
- Kd [2]: 14 to 16 µM
- Kd [3]: 20 µM
- Kd [4]: 5 µM

Substance: D41K/D42K/D48K/D49K/E51K p53N-(35–57) (LPSQAMKKLMLSPKKIKQWFTED-{K(methoxycoumarin)})
- quantifiability of binding to PC4CTD (PC4CTD): no quantifiable binding
